Key:
Pin1 (HA-Pin1, GST-Pin1) [1] = molecular target: Pin1 (HA-Pin1, GST-Pin1) (UniProt Q13526); assay: co-IP of HA-Pin1 with Myc-Kv4.2; details: reference: wild type; sites T607
Pin1 (HA-Pin1, GST-Pin1) [2] = molecular target: Pin1 (HA-Pin1, GST-Pin1) (UniProt Q13526); assay: Affi-Gel peptide pulldown from lysate

Kv4.2 (Myc-Kv4.2; synthetic C-terminal peptides) (from UniProt Q9NZV8) T607A
binding against the reference (Pin1 (HA-Pin1, GST-Pin1) [1]): weaker

Kv4.2 (Myc-Kv4.2; synthetic C-terminal peptides) (from UniProt Q9NZV8) pT602 peptide
binding against the reference (Pin1 (HA-Pin1, GST-Pin1) [2]; reference: non-phospho peptide, sites T602): stronger

Kv4.2 (Myc-Kv4.2; synthetic C-terminal peptides) (from UniProt Q9NZV8) pT602, pT607 peptide
binding against the reference (Pin1 (HA-Pin1, GST-Pin1) [2]; reference: non-phospho peptide, sites T602,T607): stronger
binding against the reference (Pin1 (HA-Pin1, GST-Pin1) [2]; reference: pT607 peptide, sites T602): stronger

Kv4.2 (Myc-Kv4.2; synthetic C-terminal peptides) (from UniProt Q9NZV8) pT607 peptide
binding against the reference (Pin1 (HA-Pin1, GST-Pin1) [2]; reference: non-phospho peptide, sites T607): stronger

From article PMC7099064
